Measurements published in patent US20200407433A1 (REMD BIOTHERAPEUTICS, published 2020).

T1: human Calcitonin Gene-Related Peptide (CGRP) (human, not fully specified)
T1 peptide: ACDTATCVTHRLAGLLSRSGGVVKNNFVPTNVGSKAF


Legend:
[1] = target: T1, human Calcitonin Gene-Related Peptide …; experiment: cell-based or functional assay
[2] = target: T1, human Calcitonin Gene-Related Peptide …; experiment: cell-based or functional assay
[3] = target: T1, human Calcitonin Gene-Related Peptide …; experiment: ELISA, human CGRP binding
Rodent CGRP = target: T2, Rodent CGRP (rodent (murine)); experiment: ELISA, rodent CGRP binding
T2 construct: also called murine CGRP
T2 sequence (Q99JA0 83-119): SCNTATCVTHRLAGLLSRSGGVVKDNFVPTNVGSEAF

[4] = target: T1, human Calcitonin Gene-Related Peptide …; experiment: SPR Biacore T200; antibody amine-coupled to chip, CGRP as analyte
Experimental: The binding affinity between the chimeric IgG4 to antigen CGRP was determined using a Surface Plasmon Resonance (SPR) biosensor, Biacore T200 (GE Healthcare). 30B8G9B11 (“A3”) and chimeric IgG4 were each immobilized on the sensor chip through an amine coupling method. Antigen CGRP protein was used as analyte. The data of dissociation (kd) and association (kₐ) rate constants were obtained using Biacore T200 evaluation software. The equilibrium dissociation constants (KD) were calculated from the ratio of kd over kₐ.

[5] = target: T1, human Calcitonin Gene-Related Peptide …; experiment: SPR Biacore 8k; antibody amine-coupled to chip, CGRP as analyte
Experimental: The recombinant IgGs secreted to the medium and were purified using protein A affinity chromatography. Evaluating from the SDS-PAGE, the purity of humanized IgGs were all over 90%. The affinities of purified antibodies binding to CGRP were determined using a Surface Plasmon Resonance (SPR) biosensor, Biacore 8k. Antibodies were immobilized on the sensor chip through amine coupling method. Antigen CGRP was used as the analyte. The data of dissociation (kd) and association (ka) rate constants were obtained using Biacore 8k evaluation software. The equilibrium dissociation constants (KD) were calculated from the ratio of kd over ka.

Row | Binder | SK-N-MC CGRP IC50 (pM) [1] [pM] | SK-N-MC IC50 (pM) [2] [pM] | EC50 [3] [pM] | EC50 (Rodent CGRP) [pM] | Kd [4] [pM] | koff [4] [s⁻¹] | kon [4] [M⁻¹ s⁻¹] | Kd [5] [pM] | koff [5] [s⁻¹] | kon [5] [M⁻¹ s⁻¹]
1 | murine mAb 30B8G9B11 (antibody, mouse IgG2a, V domains shown, Murine IgG2a, kappa; also called A3; Murine A3) VH: EVQLQQSGPELVKPGASVKISCKASGYTFTDYYMNWVKQSHGKSLEWIGDVNPNNGGTHYNQKFKGKATLTVDKSSSTAYMELRSLTSEDSAVYYCASITIVPVYFDFWGQGTTLTVSS VL: DIVMTQSQKFMSTSVGDRVSVTCKASQNVGPNVAWYRQKPGQSPKALIYSASYRYSGVPDRFTGSGSGTDFTLTISNVQSEDLADYICQQYNYYPYTFGGGTKLEIK | 152 | 152 | 70 | 296 | 2.92 | 1.56e-05 | 5.33e+06 | – | – | –
2 | murine mAb 6G5C8C4 (antibody, mouse IgG2a, V domains shown, Murine IgG2a, kappa; also called A1; 6G5C8C4 ("A1")) VH: EVQLQQSGPELVKPGASVKISCKASGYTFTDYYMNWVKQSHGKSLEWIGDINPNNGGTTYNQKFKGKATLTVDKSSTTAYMELRSLTSEDSAVYYCAVITIVPYYFDYWGQGTTLTVSS VL: DIVMTQSQKFMSTSVGDRVSVTCKASQNVGSNVAWYQQKPGQSPKALIYSASFRYSRVPDRFSGSGSGTDFTLTISNVQSEDLADYFCQQYNSYPYTFGAGTKLELK | 101 | – | 100 | 361 | – | – | – | – | – | –
3 | murine mAb 24G7B10G2 (antibody, mouse IgG2a, V domains shown, Murine IgG2a, kappa; also called A2; 24G7B10G2 ("A2")) VH: EVQLLQSGPELMKPGTSVKISCKASGYTFTDYYMNWVKQSHGKSLEWIGDVNPNNGDTTYNQKFKGKATLTIDKSSSTAYMELRSLTSEDSAVYYCASITIVPLYFDFWGQGTTLAVSS VL: DIVMTQSQKFMSTSVGDRVSVTCKASQNVGINVAWYQQKPGQSPKALLYSASYRYSGVPDRFTGSGSGTDFTLTISNVKSGDLAEYFCQQYNTYPYTFGGGTKLEIK | 195 | – | 80 | 328 | – | – | – | – | – | –
4 | REMD 128 (antibody, human IgG4 S228P, kappa, V domains shown, Humanized full-length IgG (IgG4 constant region, kappa); also called IgG 10 (H3/L2); 10 (H3/L2)) VH: QVQLVQSGAEVVKPGASVKVSCKASGYTFTDYYMNWVKQAPGQGLEWIGDVNPNNGGTHYNQKFKGRVTLTVDTSISTAYMELSRLRSDDTAVYYCASITIVPVYFDFWGQGTLVTVSS VL: DIQLTQSPSFLSASVGDRVTITCKASQNVGPNVAWYRQKPGKAPKALIYSASYRYSGVPSRFSGSGSGTEFTLTISSLQPEDFATYICQQYNYYPYTFGQGTKLEIKR | – | 49.2 | – | – | – | – | – | 1.37 | 5.79e-06 | 4.23e+06
5 | REMD 128.3 (antibody, human IgG4 S228P, kappa, V domains shown, Humanized full-length IgG (IgG4 constant region, kappa); also called IgG 14 (H4/L2); 14 (H4/L2)) VH: QVQLVQSGAEVVKPGASVKISCKASGYTFTDYYMNWVKQAPGQGLEWIGDVNPNNGGTHYNQKFKGRATLTVDTSISTAYMELSRLRSDDTAVYYCASITIVPVYFDFWGQGTLLTVSS VL: DIQLTQSPSFLSASVGDRVTITCKASQNVGPNVAWYRQKPGKAPKALIYSASYRYSGVPSRFSGSGSGTEFTLTISSLQPEDFATYICQQYNYYPYTFGQGTKLEIKR | – | 59.8 | – | – | – | – | – | 1.54 | 7.01e-06 | 4.55e+06

Second part, the binder after the results:

Row | SK-N-MC CGRP IC50 (pM) [1] [pM] | SK-N-MC IC50 (pM) [2] [pM] | EC50 [3] [pM] | EC50 (Rodent CGRP) [pM] | Kd [4] [pM] | koff [4] [s⁻¹] | kon [4] [M⁻¹ s⁻¹] | Kd [5] [pM] | koff [5] [s⁻¹] | kon [5] [M⁻¹ s⁻¹] | Binder
6 | – | 152 | – | – | 2.4 | 1.51e-05 | 6.28e+06 | 3.53 | 1.19e-05 | 3.37e+06 | murine-human chimeric IgG4 derived from murine antibody A3 (antibody, V domains shown, also called chimeric antibody) VH: EVQLQQSGPELVKPGASVKISCKASGYTFTDYYMNWVKQSHGKSLEWIGDVNPNNGGTHYNQKFKGKATLTVDKSSSTAYMELRSLTSEDSAVYYCASITIVPVYFDFWGQGTTLTVSS VL: DIVMTQSQKFMSTSVGDRVSVTCKASQNVGPNVAWYRQKPGQSPKALIYSASYRYSGVPDRFTGSGSGTDFTLTISNVQSEDLADYICQQYNYYPYTFGGGTKLEIKR
7 | – | 60.4 | – | – | – | – | – | 1.52 | 7.57e-06 | 4.97e+06 | REMD 128.2 (antibody, human IgG4 S228P, kappa, V domains shown, Humanized full-length IgG (IgG4 constant region, kappa); also called IgG 15 (H4/L3); 15 (H4/L3)) VH: QVQLVQSGAEVVKPGASVKISCKASGYTFTDYYMNWVKQAPGQGLEWIGDVNPNNGGTHYNQKFKGRATLTVDTSISTAYMELSRLRSDDTAVYYCASITIVPVYFDFWGQGTLLTVSS VL: DIQLTQSPSFLSTSVGDRVTITCKASQNVGPNVAWYRQKPGKSPKALIYSASYRYSGVPSRFSGSGSGTEFTLTISSLQPEDFATYICQQYNYYPYTFGQGTKLEIKR
8 | – | 38.9 | – | – | – | – | – | 1.57 | 7.61e-06 | 4.86e+06 | REMD 128.1 (antibody, human IgG4 S228P, kappa, V domains shown, Humanized full-length IgG (IgG4 constant region, kappa); also called IgG 11 (H3/L3); 11 (H3/L3)) VH: QVQLVQSGAEVVKPGASVKVSCKASGYTFTDYYMNWVKQAPGQGLEWIGDVNPNNGGTHYNQKFKGRVTLTVDTSISTAYMELSRLRSDDTAVYYCASITIVPVYFDFWGQGTLVTVSS VL: DIQLTQSPSFLSTSVGDRVTITCKASQNVGPNVAWYRQKPGKSPKALIYSASYRYSGVPSRFSGSGSGTEFTLTISSLQPEDFATYICQQYNYYPYTFGQGTKLEIKR
